Test results: publication PMC7039211, “Cryo-EM structure of the complete and ligand-saturated insulin receptor ectodomain” (The Journal of Cell Biology, 2019)

Target: the molecule itself
Experiment: cryo-EM structure; ~1.4 µM IR-ECD with ~40 µM insulin (28x molar excess), ~30 min at 4°C, HBS; no symmetry imposed; saturated state, 4.3 Å

B1: human insulin receptor ectodomain protomer IRαβ0 (domain or fragment)
chain 1: HLYPGEVCPGMDIRNNLTRLHELENCSVIEGHLQILLMFKTRPEDFRDLSFPKLIMITDYLLLFRVYGLESLKDLFPNLTVIRGSRLFFNYALVIFEMVHLKELGLYNLMNITRGSVRIEKNNELCYLATIDWSRILDSVEDNYIVLNKDDNEECGDICPGTAKGKTNCPATVINGQFVERCWTHSHCQKVCPTICKSHGCTAEGLCCHSECLGNCSQPDDPTKCVACRNFYLDGRCVETCPPPYYHFQDWRCVNFSFCQDLHHKCKNSRRQGCHQYVIHNNKCIPECPSGYTMNSSNLLCTPCLGPCPKVCHLLEGEKTIDSVTSAQELRGCTVINGSLIINIRGGNNLAAELEANLGLIEEISGYLKIRRSYALVSLSFFRKLRLIRGETLEIGNYSFYALDNQNLRQLWDWSKHNLTITQGKLFFHYNPKLCLSEIHKMEEVSGTKGRQERNDIALKTNGDQASCENELLKFSYIRTSFDKILLRWEPYWPPDFRDLLGFMLFYKEAPYQNVTEFDGQDACGSNSWTVVDIDPPLRSNDPKSQNHPGWLMRGLKPWTQYAIFVKTLVTFSDERRTYGAKSDIIYVQTDATNPSVPLDPISVSNSSSQIILKWKPPSDPNGNITHYLVFWERQAEDSELFELDYCLKGLKLPSRTWSPPFESEDSQKHNQSEYEDSAGECCSCPKTDSQILKELEESSFRKTFEDYLHNVVFVPRPSRKRR
chain 2: SLGDVGNVTVAVPTVAAFPNTSSTSVPTSPEEHRPFEKVVNKESLVISGLRHFTGYRIELQACNQDTPEERCSVAAYVSARTMPEAKADDIVGPVTHEIFENNVVHLMWQEPKEPNGLIVLYEVSYRRYGDEELHLCVSRKHFALERGCRLRGLSPGNYSVRIRATSLAGNGSWTEPTYFYVTDYLDVPSNIAK
modifications: glycosylated | glycosylated
stoichiometry N: 2
